Data as given in patent US20250388664A1 (BIOARCTIC, published 2025).
Like-named read-outs stand apart in the source and are kept apart here.

T1: truncated cTfR1 of SEQ ID NO:123 (cynomolgus monkey, UniProt Q5RDH6 122-760 (Pongo abelii entry))
T1 construct: also called cynomolgus TfR1
T1 chain: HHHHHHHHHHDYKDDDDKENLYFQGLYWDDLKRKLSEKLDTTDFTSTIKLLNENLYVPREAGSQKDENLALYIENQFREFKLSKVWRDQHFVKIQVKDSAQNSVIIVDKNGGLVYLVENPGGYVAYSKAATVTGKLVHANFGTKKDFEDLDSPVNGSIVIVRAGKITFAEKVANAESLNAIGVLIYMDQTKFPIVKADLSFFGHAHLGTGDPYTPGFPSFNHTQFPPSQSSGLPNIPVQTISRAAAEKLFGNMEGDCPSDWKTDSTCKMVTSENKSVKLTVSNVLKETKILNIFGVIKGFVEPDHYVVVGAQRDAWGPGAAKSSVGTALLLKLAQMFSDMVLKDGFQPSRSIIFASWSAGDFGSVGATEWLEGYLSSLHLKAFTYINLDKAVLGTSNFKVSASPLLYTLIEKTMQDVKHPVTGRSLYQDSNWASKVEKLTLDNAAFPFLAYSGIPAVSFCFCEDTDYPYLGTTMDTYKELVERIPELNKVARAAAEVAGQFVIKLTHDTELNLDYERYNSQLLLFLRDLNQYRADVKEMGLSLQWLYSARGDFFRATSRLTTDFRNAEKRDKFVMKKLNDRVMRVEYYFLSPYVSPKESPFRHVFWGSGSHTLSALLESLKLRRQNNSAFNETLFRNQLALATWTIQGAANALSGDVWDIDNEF

T2: h/m apical domain chimera (SEQ ID NO:112) (human/mouse chimera)
T2 construct: also called chimeric TfR1 consisting of human apical domain grafted on mouse TfR1 ectodomain
T2 chain: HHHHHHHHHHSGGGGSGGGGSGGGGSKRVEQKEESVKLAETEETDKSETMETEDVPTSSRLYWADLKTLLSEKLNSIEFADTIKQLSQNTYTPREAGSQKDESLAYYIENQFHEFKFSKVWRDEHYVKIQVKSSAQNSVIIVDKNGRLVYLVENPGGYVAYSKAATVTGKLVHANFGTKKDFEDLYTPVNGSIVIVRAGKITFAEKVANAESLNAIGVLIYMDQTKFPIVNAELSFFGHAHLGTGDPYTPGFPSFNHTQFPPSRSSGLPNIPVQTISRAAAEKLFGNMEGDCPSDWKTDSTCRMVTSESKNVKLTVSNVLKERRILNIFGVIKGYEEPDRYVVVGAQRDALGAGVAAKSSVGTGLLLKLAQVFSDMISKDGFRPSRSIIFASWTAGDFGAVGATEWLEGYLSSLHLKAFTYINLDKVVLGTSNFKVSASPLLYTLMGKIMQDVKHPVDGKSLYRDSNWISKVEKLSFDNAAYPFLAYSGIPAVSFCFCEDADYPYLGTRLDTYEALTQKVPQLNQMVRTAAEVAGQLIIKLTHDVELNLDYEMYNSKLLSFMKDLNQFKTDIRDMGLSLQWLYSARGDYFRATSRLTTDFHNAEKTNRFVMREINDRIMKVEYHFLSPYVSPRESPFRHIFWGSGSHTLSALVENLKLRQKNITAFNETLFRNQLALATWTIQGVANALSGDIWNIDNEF

T3: h/m helical domain chimera (SEQ ID NO:113) (human/mouse chimera, UniProt Q62351 90-763 (mouse entry))
T3 construct: also called chimeric TfR1 consisting of human helical domain grafted on mouse TfR1 ectodomain
T3 chain: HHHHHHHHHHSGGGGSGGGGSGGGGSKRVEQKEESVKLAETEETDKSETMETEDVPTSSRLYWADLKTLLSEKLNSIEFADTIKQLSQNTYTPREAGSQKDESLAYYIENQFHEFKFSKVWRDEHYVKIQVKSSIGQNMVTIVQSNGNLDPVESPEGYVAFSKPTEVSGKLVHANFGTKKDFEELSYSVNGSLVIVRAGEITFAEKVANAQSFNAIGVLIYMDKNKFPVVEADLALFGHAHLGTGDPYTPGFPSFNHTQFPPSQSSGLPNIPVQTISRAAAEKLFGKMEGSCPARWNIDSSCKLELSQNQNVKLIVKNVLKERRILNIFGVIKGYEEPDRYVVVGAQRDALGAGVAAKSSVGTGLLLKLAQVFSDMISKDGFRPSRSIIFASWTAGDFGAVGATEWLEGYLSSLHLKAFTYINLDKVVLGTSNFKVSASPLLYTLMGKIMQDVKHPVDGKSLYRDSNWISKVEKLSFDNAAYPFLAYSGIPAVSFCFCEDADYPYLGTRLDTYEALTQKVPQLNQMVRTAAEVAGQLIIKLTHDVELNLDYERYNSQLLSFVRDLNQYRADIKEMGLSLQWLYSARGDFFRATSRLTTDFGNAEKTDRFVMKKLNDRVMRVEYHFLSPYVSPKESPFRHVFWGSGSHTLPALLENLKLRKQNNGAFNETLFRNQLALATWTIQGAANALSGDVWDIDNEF

B1: BA001 (bispecific antibody, human IgG1, kappa)
light: EIVLTQSPLSLSVTLGQSASISCRSSQSLLDSNGKTYLHWFILRPGQSPRRLIYLVSILDSGVPDRFSGSGSGTDFTLKISRVEAEDVGVYYCVQGTHFPFTFGSGTKLEIKRTVAAPSVFIFPPSDEQLKSGTASVVCLLNNFYPREAKVQWKVDNALQSGNSQESVTEQDSKDSTYSLSSTLTLSKADYEKHKVYACEVTHQGLSSPVTKSFNRGEC
heavy 1: not shown
heavy 2: EVQLVQSGAEVVKPGASVRLSCKASGYSFTGFTMNWVRQALGQGLEWMGLINPYNGVTTYNQKFKGRLTMTRDMSTRTVYMDLSSLTYEDTAVYYCTREGNWEGVYWGQGTLVTVSSASTKGPSVFPLAPSSKSTSGGTAALGCLVKDYFPEPVTVSWNSGALTSGVHTFPAVLQSSGLYSLSSVVTVPSSSLGTQTYICNVNHKPSNTKVDKKVEPKSCDKTHTCPPCPAPELLGGPSVFLFPPKPKDTLMISRTPEVTCVVVDVSHEDPEVKFNWYVDGVEVHNAKTKPREEQYNSTYRVVSVLTVLHQDWLNGKEYKCAVSNKALPAPIEKTISKAKGQPREPQVYTLPPCRDELTKNQVSLWCLVKGFYPSDIAVEWESNGQPENNYKTTPPVLDSDGSFFLYSKLTVDKSRWQQGNVFSCSVMHEALHNHYTQKSLSLSPGGGGGSGGGGSGGGGSGGGGSDIQMTQSPSSVSASVGDRVTITCKSSQSLLYSTNQKNYLAWYQQKPGKAPKLLIYWASTRESGVPSRFSGSGSGTDFTLTISSLQPEDFATYYCQQYFIYPRTFGCGTKVEIKGGGGSGGGGSGGGGSGGGGSEVQLVQSGAEVKKPGSSVKVSCKASGYIFTDYNMDWVRQAPGQCLEWIGDINPDADTTSYNEKFKGRATLTVDKSTSTAYMELSSLRSEDTAVYYCARGGYSGSSYYHPMDYWGQGTLVTVSS
B2: 24B4 (antibody, V domains shown)
VH: EVQLQQFGAELVKPGTSVKISCKASGYTFTDYNMDWVKQGHGKGLEWIGDINPNYDTTSYSQKFKGKATLTVDKSSSTAYMELRSLTSEDTAVYYCARSEAGNYYWYFDVWGAGTTVTVSS
VL: DIVMSQSPSSLAVSVGEKVTMSCKSSQSLLYSSNRKNYLAWYRQKPGQSPKLLIYWASTRESGVPDRFTGSGSGTDFTLTISSVKAEDLAVYSCQQYYNYPYTFGGGTKLEIK
notes: also called mouse antibody 24B4; clone 24B4

Tests used:
AβpE3-40 monomer [1] = target: T4, AβpE3-40 monomer (UniProt P05067 674-711, pyroglutamate at position 3 (N-terminal residue)); assay: cell-based or functional assay
AβpE3-40 monomer [2] = target: T4, AβpE3-40 monomer; assay: SPR, antibody immobilised, monomer injected, 1:1 fit
Procedure: Single cycle kinetics with the binding molecules immobilized on a CM5 chip was used to measure binding to the AβpE3-40 monomer. For the measurements, 5 μg/ml of analyte binding molecule was immobilized on the chip. […] Regeneration of the surface between cycles was done by injecting 30 μl 3 M MgCl₂ (Cytiva, cat. No. 29234600). The binding data was fitted to a 1:1 interaction model.

AβpE3-40 monomer [3] = target: T4, AβpE3-40 monomer; assay: as above; remark: listed apart in the source
[4] = target: T5, truncated hTfR1 of SEQ ID NO:122 (human, UniProt P02786 122-760); assay: SPR, FLAG-captured TfR1, bispecific injected, 1:1 fit
T5 construct: also called human TfR1; Human TfR1

[5] = target: T5, truncated hTfR1 of SEQ ID NO:122; assay: as above; remark: listed apart in the source
Procedure: (§1) Binding of the purified bispecific binding molecules produced in Example 47 to human and cynomolgus TfR1 was evaluated using SPR on a Biacore 8K instrument (Cytiva). […] The interaction was measured using the single cycle kinetics method with a contact time of 120 s at a flow rate of 30 μl/min followed by a dissociation time of 600 s. Regeneration of the surface between cycles was done by injecting 10 mM glycine-HCl, pH 1.7. The binding data was fitted to a 1:1 interaction model. The tested molecules were diluted in HBS-EP+ (Cytiva, #BR100669). Experiments were performed at 25° C.

[6] = target: T1, truncated cTfR1 of SEQ ID NO:123; assay: as above
Procedure: as §1

AβpE3-40 monomer [7] = target: T4, AβpE3-40 monomer; assay: inhibition ELISA, antigen titrated in solution, AβpE3-40 coat
Procedure: (§2) The tested molecules were incubated at a fixed concentration (0.1 μg/ml) with titrating concentrations of the different AβpE3 antigens. After incubation for 45 min at 900 rpm to reach equilibrium, the samples were added to a blocked and washed ELISA plate with an AβpE3-40 coat (0.5 μM). The samples were incubated on the plate for 25 min without shaking followed by washing, incubation with detection antibody, another washing step and finally incubation with alkaline phosphatase substrate.

AβpE3-42 protofibrils = target: T6, AβpE3-42 protofibrils (UniProt P05067 674-713, pyroglutamate at position 3 (N-terminal residue)); assay: as above
T6 construct: range 3-42 (Aβ numbering); Soluble aggregates made from AβpE3-42 peptide, purified in the void peak of SEC; also called AβpE3-42 PF
Procedure: as §2

[8] = target: T2, h/m apical domain chimera (SEQ ID …); assay: indirect ELISA: plate coated with 1 µg/ml h/m apical domain chimera, mouse IgG titrated, anti-mouse IgG-HRP; x axis printed as 'TfR (ng/ml)'
Procedure: Plasma samples serially diluted from a starting dilution of 1/450 or hybridoma supernatants diluted 1/2 were added to the plates (50 μl/well; dilution buffer: PBS with 0.1% BSA and 0.05% TWEEN®-20) and incubated for 2 h at room temperature and then the plates were washed four times. […] After another wash (as above), 50 μl/well TMB substrate (K-Blue® Aqueous, Neogen) was added, and the reaction was stopped after 10-15 min with 50 μl/well of 0.5 M H₂SO₄. The optical density at 450 nm was read using a plate reader (Tecan). The endpoint titers were defined as the dilution above the average of the blank wells (background) plus 3 standard deviations of the blank wells.
(§3) In the ELISA experiment, human, mouse or three different chimeric TfR1 receptors were used to coat ELISA plates (FIGS. 30A-30E). The ELISA protocol was slightly modified as follows from the indirect ELISA described in Example 15. […] The coated plates were then blocked. Dilution series of mouse IgG of the analyzed antibodies were prepared in PBS and incubated on the ELISA plates. Unbound antibodies were then washed off before incubating wells with a HRP-conjugated secondary, anti-mouse-IgG for 1 h. Plates were then washed again before addition of HRP substrate TMB for development and detection of antibody binding to the wells. TMB development was stopped by adding 0.5 M H₂SO₄ to the wells and ELISA responses measured as the OD at 450 nm in an ELISA plate reader.

[9] = target: T3, h/m helical domain chimera (SEQ ID …); assay: indirect ELISA: plate coated with 1 µg/ml h/m helical domain chimera, mouse IgG titrated, anti-mouse IgG-HRP; x axis printed as 'TfR (ng/ml)'
Procedure: as §3

T4 sequence (P05067 674-711): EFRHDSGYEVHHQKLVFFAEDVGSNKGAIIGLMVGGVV
T6 sequence (P05067 674-713): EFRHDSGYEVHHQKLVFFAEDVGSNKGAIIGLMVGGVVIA

Binder | Uptake of AβpE3-40 monomers in THP-1 cells, EC50 (AβpE3-40 monomer [1]) | Kd (AβpE3-40 monomer [2]) | koff (AβpE3-40 monomer [2]) | kon (AβpE3-40 monomer [2]) | Kd (AβpE3-40 monomer [3]) | koff (AβpE3-40 monomer [3]) | kon (AβpE3-40 monomer [3]) | Kd [4] | koff [4] | kon [4] | Kd [5] | koff [5] | kon [5] | Kd [6] | koff [6] | kon [6] | IC50 (AβpE3-40 monomer [7]) | IC50 (AβpE3-42 protofibrils) | binding result [8] | binding result [9]
B1 | 2 nM | 2.17 nM | 0.00012 s⁻¹ | 55800 M⁻¹ s⁻¹ | 2.1 nM | 0.00011 s⁻¹ | 54000 M⁻¹ s⁻¹ | 174 nM | 0.0038 s⁻¹ | 22000 M⁻¹ s⁻¹ | 190 nM | 0.0042 s⁻¹ | 22000 M⁻¹ s⁻¹ | 525 nM | 0.01 s⁻¹ | 19000 M⁻¹ s⁻¹ | 1.1 nM | 3.1 nM | – | –
B2 | – | – | – | – | – | – | – | – | – | – | – | – | – | – | – | – | – | – | no binding (tested: about 600 ng/ml) | no binding (tested: about 600 ng/ml)
